Source: US20250355001A1, “METHOD FOR DETECTING A TAU PROTEIN FRAGMENT IN A SAMPLE” (GTINVENT LIMITED, priority 2022, published 2025)
Values joined by “and” are separate entries in the source; they are usually repeats but may differ in a detail not shown here. Equal entries are not always repeated.

B1: CB7: human-specific N-terminal anti-tau clone, Table 10; SEQ ID NO: 364 (protein)
scFv: QVQLQESGPSLVKPSQTLSLTCTVSGFSLTNYRVGWVRQAPGKALEWVSNIRSGGTTWYNPALKSRLSITADTSKSQVSLSLSSVTTEDTAVYYCARDSSGDLYAYDYWGPGLLVTVSSEGKSSGASGESKVDDQAVLTQPSSVSRSLGQSVSMTCSGSSSNVGYGNYMAWFQQVPGSAPKLLIYGATSRASGVPDRFSGSRSGNTATLTISSLQAEDEADYYCASYDSTSGGVFGSGTRLTVLG
modifications: CB7 amino acid sequence
B2: E2E8 mAb: E2E8 reformatted; heavy chain SEQ ID NO: 493, light chain 494 (antibody)
heavy: QVQLQESGPSLVKPSQTLSLTCTVSGFSLTDRGVAWVRQAPGKALEWVGTMRSGGTIDYNPALKSRLSITRDTSKSQVFLSLSSVTTEDMAMYYCARGYLSGDRYAWGRGLLVTVSSAKTTAPSVYPLAPVCGDTTGSSVTLGCLVKGYFPEPVTLTWNSGSLSSGVHTFPAVLQSDLYTLSSSVTVTSSTWPSQSITCNVAHPASSTKVDKKIEPRGPTIKPCPPCKCPAPNLLGGPSVFIFPPKIKDVLMISLSPIVTCVVVDVSEDDPDVQISWFVNNVEVHTAQTQTHREDYNSTLRVVSALPIQHQDWMSGKEFKCKVNNKDLPAPIERTISKPKGSVRAPQVYVLPPPEEEMTKKQVTLTCMVTDFMPEDIYVEWTNNGKTELNYKNTEPVLDSDGSYFMYSKLRVEKKNWVERNSYSCSVVHEGLHNHHTTKSFSRTPGK
light: QAVLTQPSSVSKSLGQSVSIACSGSRSDIGYGNYVSWFQQIPGSAPKLLIYDTNTRASGVPDRFSGARSGNTATLTINSLQAEDEADYYCANIDSSRSHLFGSGTRLTVLGGQPKSSPSVTLFPPSSEELETNKATLVCTITDFYPGVVTVDWKVDGTPVTQGMETTQPSKQSNNKYMASSYLTLTARAWERHSSYSCQVTHEGHTVEKSLSRADCS
modifications: E2E8 mAB Heavy Chain; E2E8 mAB Light Chain

Key:
[1] = test system: tau fragments in plasma of WT, L1 and L66 mice; test: Capture ELISA on transgenic mouse plasma; details: Line66 transgenic model
Experimental: Plasma samples from WT, L1, L66+/− and L66+/+ of various ages (1.5-9 months) were taken as described. Mice were terminally anaesthetized using an overdose of sodium pentobarbital and blood was collected through cardiac puncture through a Plastipak syringe pre-rinsed with heparinised saline heparin (10 U/ml) (Heparin sodium salt; Sigma-Aldrich) and transferred into a plastic vial containing lithium heparin anticoagulant (Sarstedt Ltd.) Blood samples, kept on ice for no more than 30 minutes, were centrifuged to obtain plasma at 2000× g for 5 minutes at 6° C. Plasma samples were stored at −20° C.
For mouse plasma capture ELISA, 100 μL capture mAb was coated to the bottom of a black nunc 96 well ‘maxisorp’ plate at 2.5 μg/ml and incubated for 1 hour at 37° C. After washing and blocking as normal, several known standard solutions were set up in triplicate starting at 20 ng/ml of the desired protein before double diluted in the remaining wells. Mouse samples were added to wells in duplicate with a blank in between each sample group. Line1 plasma was diluted 1:10 before addition to plate to account for its high concentration while other samples were diluted 1:2 to account for potential matrix effects. […] The ELISA was developed using SuperSignal ELISA Femto Substrate (Thermo Scientific) and total luminescence was read on Clariostar Plus plate reader (BMG Labtech). […]

[2] = molecular target: T1, hT40 (T441, SEQ ID NO: 1) (Homo sapiens, UniProt P10636); test: Biacore X100 SPR kinetics of scAbs for hT40; format: binding; details: Table 23; scAb captured, T441 (hT40) analyte; 1:1 model
T1 construct: Full length tau (hT40)
T1 sequence (P10636 1-441 isoform P10636-8): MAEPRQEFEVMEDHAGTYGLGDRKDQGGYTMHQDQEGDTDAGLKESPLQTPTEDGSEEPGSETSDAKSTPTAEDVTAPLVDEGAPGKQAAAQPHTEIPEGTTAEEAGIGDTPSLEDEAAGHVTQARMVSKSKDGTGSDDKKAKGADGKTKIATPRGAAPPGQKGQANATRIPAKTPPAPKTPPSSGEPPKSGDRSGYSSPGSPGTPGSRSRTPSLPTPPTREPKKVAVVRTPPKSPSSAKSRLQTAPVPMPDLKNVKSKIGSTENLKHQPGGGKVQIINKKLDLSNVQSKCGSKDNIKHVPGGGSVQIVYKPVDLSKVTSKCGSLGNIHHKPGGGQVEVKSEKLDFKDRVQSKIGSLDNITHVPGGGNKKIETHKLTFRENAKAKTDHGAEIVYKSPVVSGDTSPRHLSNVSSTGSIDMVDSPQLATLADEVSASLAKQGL
Summary of the method: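 Captured scAb on anti-HuCk CM5 surface (flow cell 1 as reference) in HBS-EP+, capture set for theoretical RMax 100 RU; hT40 injected multi-cycle (0.15625–100 nM) or single-cycle (6.25–100 nM), 120 s association, 420 s dissociation, glycine pH 2.0 regeneration. Kinetics and affinity from 1:1 binding model fit.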

htau40 = molecular target: T2, htau40 (Homo sapiens, UniProt P10636); test: Biacore X100 SPR kinetics of anti-tau mAbs on immobilised htau40; format: binding; details: Table 27; mAb format, immobilised htau40
T2 construct: Full length tau (hT40)
T2 sequence (P10636 1-441 isoform P10636-8): as above
Summary of the method: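 Htau40 amine-coupled to CM5 chip (~250 RU, pH 4.0 immobilisation), reference flow cell subtracted; mAb injected at 0.78–25 nM in HBS-EP+, 120 s association, 600 s dissociation, glycine pH 1.5 regeneration. Kinetic and affinity constants from 1:1 binding model fit.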

[3] = test system: hT40, dGA, dGAE and truncated tau fragments; test: Binding ELISA / epitope mapping of anti-tau scAbs with truncated tau proteins and 13mer peptides; parameters: species or system human
Summary of the method: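 Plates coated with 1 μg/ml tau protein, or 5 μg/ml streptavidin then 1 μg/ml biotinylated 13mer peptide; blocked with 2% MPBS. scAbs added at a starting concentration and double-diluted. Bound scAb detected with HRP anti-human C kappa and read as absorbance.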

aggregated dGAE = aggregated dGAE (Homo sapiens, UniProt P10636); test: Capture ELISA ranking mAbs for capture of dGAE aggregates; format: binding; details: capture mAb 1 μg/ml; 800 nM aggregated dGAE
Sequence of aggregated dGAE (P10636 614-708): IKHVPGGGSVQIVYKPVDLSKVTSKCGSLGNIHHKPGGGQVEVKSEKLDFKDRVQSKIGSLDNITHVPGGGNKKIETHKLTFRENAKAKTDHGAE
Experimental: The aggregation cascade of natively unfolded tau into insoluble filaments is a defining pathological feature of AD. Therefore, it is logical to target aggregated tau filaments for both therapeutic and diagnostic purposes. The following experiment was performed to assess the ability of our dGA mAb panel to bind aggregated dGAE using a capture ELISA method. Aggregates were prepared by incubating 100 μM dGAE and 10 mM dTT for 24 h at 37° C. with shaking at 700 RPM. The following day, dGAE aggregates were centrifuged at 17,000×g for 20 min and the supernatant was removed. The remaining pellet was washed with 10 mM phosphate buffer and centrifuged as above. Washing was repeated a further two times to remove any remaining dGAE monomer. The dGAE pellet was resuspended in 100 μl of 10 mM phosphate buffer. (Using a separate capture ELISA based quantification, we have worked out the efficiency of our dGAE aggregation as 80%)
Following washing, 800 nM aggregated dGAE was added to the designated wells, double diluted across the plate and incubated for 1 h at RT. The plate was washed again and 1 μg/ml S1G2 scAb was added as detection antibody and incubated for 1 h at RT. To the row where S1G2 mAb was used for capture, […] s1D12 scAb was added as […] instead of S1G2. The assay was developed using HRP labelled HuCK as described previously.

Row | Molecule | cross reaction with endogenous mouse tau [1] | ka [2] | kd [2] | ka (htau40) | kd (htau40) | Tau proteins/fragments with positive scAb reactivity ([3]; Table 17, 'C' group scAbs, binding ELISA) | Shortest region bound on hT40 ([3]; Table 17, 'C' group scAbs, incl. 13mer peptides) | Epitope ([3]; Table 26 summary, top scAbs, residues of hT40) | Detection scAb (Epitope) ([3]; Table 28 (LoD table), residues of hT40) | binding region on hT40 ([3]; amino acid residues of hT40) | Epitope ([3]; residue numbers of SEQ ID NO: 1 (hT40), CDR Tables 1-11) | Binding region hT40 ([3]; second Table 26, own antibodies) | ability to capture dGAE aggregates (aggregated dGAE)
1 | B1 | does not cross react with endogenous mouse tau protein | 133400 M⁻¹ s⁻¹ | 0.0006936 s⁻¹ | 2.568e+06 M⁻¹ s⁻¹ | 0.009451 s⁻¹ | hT40, 1-49, 1-155, 1-319 | 13-25 | 13-25 | CB7 (13-25) | 13-25 and 13-26 | 13-25 | (Binding region hT40 13-25) | 
2 | B2 |  |  |  |  |  |  |  |  |  |  |  |  | most efficient at capturing aggregated dGAE
